Test results reported in the supplement of paper PMC12042874.
± gives the uncertainty stated by the source.

Experiment: amyloid nucleation score (Sup35N fusion, yeast selection) (log enrichment); library NNK2; higher = more nucleation; inactive = no reads after selection
Procedure, shortened: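 Yeast lacking psi expressed peptides of 20 random codons fused to Sup35N, received 100 μM copper sulfate for 24 hours, and were then grown for 7 days at 30°C on medium lacking adenine and uracil. Illumina sequencing of input and output plasmid inserts provided the reads. Nucleation scores are DiMSum log enrichments of output over input, centred on the mode of non-aggregating sequences. Any sequence with under 100 input reads was excluded.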

| Substance | amyloid nucleation score |
| --- | --- |
| GVCPTVVCPHYIDVRML | 0.16 ± 0.55 |
| GVCVI | 0.775 ± 0.4 |
| GVCVKRFFKLVTAGECNSKG | -0.13 ± 0.4 |
| GVEVKSNVWTVSGWESQTPQ | 1.89 ± 0.42 |
| GVGGRVWTC | -0.998 ± 0.76 |
| GVGHFFLIQINKMCPHMRMA | 2.98 ± 0.13 |
| GVIRILWDECRTSDYFGCGT | 0.047 ± 0.26 |
| GVISYMTSRGRGLSNNMSNW | -0.15 ± 0.56 |
| GVIWTRAVANCIVLSGMS | -0.149 ± 0.55 |
| GVKRYDVHM | -0.244 ± 0.48 |
| GVLMIYYWVSMCLYALLIVF | inactive |
| GVPLLLRMTCSLCRIAFQE | 4.28 ± 0.069 |
| GVPYFLRW | -1.32 ± 0.48 |
| GVQTFVMTPTCKRNWLQDGR | 0.233 ± 0.27 |
| GVRSNLSYNIFVTCAMRASG | inactive |
| GVSNNALCSNRITSLNRPML | 0.313 ± 0.17 |
| GVTKNCSC | -0.036 ± 0.63 |
| GVTPYCKRHV | -1.14 ± 0.78 |
| GVVFFFGKDNGRDIMSGTRY | inactive |
| GVVLNLDTWLVDEVPDGVRM | 0.057 ± 0.76 |
| GVVNSRYALFNCRLEFKDVL | 9.742 ± 0.071 |
| GVYNITTLLPRCVVNVVL | 7.482 ± 0.028 |
| GWESGALWVANFLSVRQA | 0.19 ± 0.56 |
| GWLYVYDSGMFGGWNIGVDG | -0.131 ± 0.36 |
| GWMQIGSVYLFSE | 7.741 ± 0.048 |

| Substance | amyloid nucleation score |
| --- | --- |
| GWTKLFGVHDSGIGCPNGVL | inactive |
| GWWNHGSSMGYFERVSSTFW | inactive |
| GYAADLWWVLLFYERLVSGD | 0.026 ± 0.49 |
| GYKDANQNM | inactive |
| GYKHLIRVQWSKTYSSTGFC | -0.356 ± 1.1 |
| GYSSGFQVAVNLRSTLRQSY | 3.03 ± 0.068 |
| GYVWDVIGKWGTLRILRVSK | -0.498 ± 1.1 |
| HAACCASNLLWGRFFWSCAD | 2.74 ± 0.084 |
| HCAEHQPASGVLVTGYWDLG | 0.444 ± 0.54 |
| HCGVLVDISFEHALIFR | -1.99 ± 0.78 |
| HCLFSGYYLKLN | inactive |
| HCTWSQPPSS | -0.001 ± 0.5 |
| HDGCGPCSHWTGSQFTFRSS | 2.2 ± 0.11 |
| HDINRMG | 0.391 ± 0.54 |
| HDRIFSIKSWWCRSIWEVGV | -1.79 ± 0.78 |
| HDRVIRQN | 0.084 ± 0.26 |
| HDYFTYT | 4.83 ± 0.059 |
| HFETGGIS | 0.447 ± 0.57 |
| HFIGVD | -0.156 ± 0.28 |
| HFMFVSNRVGWVGLLQNYSR | 6.657 ± 0.066 |
| HFRVYSWIQVK | 0.337 ± 0.49 |
| HFTYGSSFIL | 3.53 ± 0.069 |
| HFVFI | -1.05 ± 1.1 |
| HGDAKFGSVVGAFQDLYS | 1.29 ± 0.39 |
| HGHASFIRF | 2.13 ± 0.2 |

| Substance | amyloid nucleation score |
| --- | --- |
| HGNWGLLYLTDALVKMIQDV | -0.311 ± 0.3 |
| HGQARWGR | 1.47 ± 0.28 |
| HGTCISSGNKWARWTLS | 0.355 ± 0.65 |
| HGYSNNTSWAYI | 0.436 ± 0.65 |
| HHLKGPSQPSIVEIFE | -0.081 ± 0.31 |
| HHSELFIIITYFG | 0.206 ± 0.5 |
| HIDEYKWT | 0.546 ± 0.8 |
| HIDNVGVLR | 1.18 ± 0.28 |
| HIFHCLSMGILGCSMFLCLD | 0.952 ± 0.24 |
| HIGCIRWFSCGGSPLSMNRL | 1.24 ± 0.2 |
| HIIISKYHINYCRMMNYSGK | 8.137 ± 0.056 |
| HKCGTPFAIHIYRSKQLPGV | -0.305 ± 1 |
| HKGCGNSCIWHYFGNFWRFR | -0.658 ± 0.56 |
| HKGFEPVGRGYALCSTWLVV | 6.37 ± 0.074 |
| HKGWIKLLLPAHQLITLPPN | 0.174 ± 1 |
| HKWCKYNDLFVIHMSGFGRG | 5.44 ± 0.087 |
| HKWWSAPGSLAS | -0.038 ± 0.79 |
| HLASFFSSVSYSSDLAYSGT | -1.02 ± 0.78 |
| HLFVASYDKRVECFLSVKGE | inactive |
| HLMCESGRVFWKD | 0.015 ± 0.31 |
| HLRIGLIN | -0.467 ± 0.43 |
| HLSGYKLLIKSVYFE | 3.63 ± 0.067 |
| HLTAYCMSTHRQACDVDFDF | -0.067 ± 1.1 |
| HLWFLCRSYGGVLKFHTESV | 1.03 ± 0.43 |
| HLWSLRGPIAFIENRLSVWI | 0.605 ± 0.51 |

| Substance | amyloid nucleation score |
| --- | --- |
| HLYRSCVNKLL | -0.833 ± 1.1 |
| HMMFKSPYRCLLLNLTGYVL | 0.934 ± 0.25 |
| HMQPYIRESISVG | inactive |
| HMSVGNFLIPLCITMLRGIG | -0.347 ± 1.1 |
| HNLCGYLLVSVAWVLWWIRR | 2.61 ± 0.11 |
| HNSNYHIYGWVMVRRRIGYI | inactive |
| HNTKSYLWV | inactive |
| HNWLSMVQYH | -0.344 ± 0.76 |
| HPFVSDCVMDLKFTVVTGLV | 0.086 ± 0.3 |
| HPYYDQ | 0.538 ± 0.45 |
| HRDHGTISLHRKCSYVALAS | 1.14 ± 0.29 |
| HRMAPMGVISGNVLLPLSVW | inactive |
| HRNQTASKGCSCLLDCHDTG | 0.356 ± 0.23 |
| HRTLFKGPSWLPKRRERAIL | -0.097 ± 0.79 |
| HRVFNEGASMGTCCSILLEM | 6.047 ± 0.042 |
| HRYSRLRRVHYSYRSKGLNH | inactive |
| HSFVNNEKASQMSSCETGGS | -0.509 ± 0.41 |
| HSLMQLYLVIFLAHFQSYGL | 0.604 ± 0.44 |
| HSMAWNVG | inactive |
| HSNGKMNTTIHVVSELTVMR | 4.31 ± 0.058 |
| HSNLVT | 0.234 ± 0.41 |
| HSPNCYKMSGRFLCD | -1.77 ± 0.54 |
| HSRHHWYPSWQFWMLRPQNC | 1.4 ± 0.43 |
| HSSGCYF | 0.081 ± 1.1 |
| HSTVSLQSGRMNVVASGVIH | 1.62 ± 0.11 |

| Substance | amyloid nucleation score |
| --- | --- |
| HTGLFWS | inactive |
| HTSVLNMTGSGLIPN | -1.82 ± 0.78 |
| HTTDFIVLMVRSDASIRLWS | 4.1 ± 0.077 |
| HVEHGNCFQ | inactive |
| HVTWKNMIIDYLVP | 0.615 ± 0.6 |
| HVVVDSSVVAGCFTVFCRGI | 8.265 ± 0.046 |
| HWMVGKV | 0.164 ± 0.28 |
| HWVCKIILRGHSSMYCSDGC | 3.35 ± 0.11 |
| HWWLVIAMNRLGCFGEFMMR | -0.547 ± 0.63 |
| HWYVVDLVRVNYRALNSKWW | 0.194 ± 0.56 |
| HYMRFYCCSYNANKTVSYVP | 8.72 ± 0.028 |
| HYSGGCSLPSVKERVGTSIG | -0.604 ± 0.76 |
| HYVIVNIICCSDVGVLSRDR | 9.454 ± 0.069 |
| IALQDSDFSLLWFMHVCWDE | -0.463 ± 0.74 |
| IANKCVS | -1.12 ± 0.55 |
| IANRGNAKHVRWICMMHHRS | 0.479 ± 0.41 |
| IANWSKYSASTCLVMTHAMA | -0.302 ± 0.28 |
| IARDYVQ | -0.918 ± 0.54 |
| IASRLTPHSLYFLINVGRGR | 2.88 ± 0.14 |
| IATYIR | -0.179 ± 0.63 |
| IAVERS | -0.464 ± 1.1 |
| ICCRRSMPMIINDLNFMSNS | 7.928 ± 0.035 |
| ICETGMGSKVGHEPVTAQ | 0.598 ± 0.57 |
| ICFTCQYFNKYPGRS | 4.31 ± 0.09 |
| ICGCCARIHNYNISVSACLT | 4.3 ± 0.052 |

| Substance | amyloid nucleation score |
| --- | --- |
| ICGGTSESGRYRKAGQGV | 1.07 ± 0.15 |
| ICIDRNRI | 0.396 ± 0.34 |
| ICKGVRKIWSFGDMSWCRES | inactive |
| ICKRVVVLWHSKEPDALFVG | inactive |
| ICPFKSWFFYSLPYAFVRFT | inactive |
| ICQWRSWLKSTVIFCTRYDF | 3.37 ± 0.13 |
| ICWHV | -0.277 ± 1.1 |
| ICWRHTGIICKAGSNRSH | inactive |
| IDFRISLCVRFFGCFLLDYY | -0.618 ± 0.76 |
| IDSDSFHDRSTSRHLFNGLA | inactive |
| IDSILICIMHDCIYIEYLRN | 4.44 ± 0.094 |
| IDVGYIYGMVCWQTG | 4.08 ± 0.083 |
| IDVSKCVLGKDSSLRGTNTR | -0.595 ± 0.28 |
| IDYHD | -1.45 ± 0.78 |
| IEFWDYKYVLVSSFVFKHDV | -0.069 ± 0.65 |
| IEGDLFVRLRLRKLSQLFKA | 0.196 ± 0.77 |
| IESPLIEFTIDCW | -0.025 ± 0.79 |
| IESSGWAGRGTYSTYLASNV | 1.2 ± 0.66 |
| IFAGIHWNGQSAFLVFKCHI | inactive |
| IFASRSGFLSIRQLSHPARR | 3.35 ± 0.078 |
| IFCYPQCVGPRSLCVGGNME | -0.72 ± 0.39 |
| IFFLSNLKRKPDDRGLVHKN | 2.57 ± 0.14 |
| IFGFGL | 2.85 ± 0.2 |
| IFIRLFVLANYCINLFSS | 3.28 ± 0.082 |
| IFLQNTSSEWLLSARDRLRY | 0.157 ± 1 |

| Substance | amyloid nucleation score |
| --- | --- |
| IFNRSASYLAFFHKG | 4.3 ± 0.079 |
| IFPGILH | -1.83 ± 0.63 |
| IFRFARSNTYFRGESME | 4.08 ± 0.095 |
| IFYHHLSWTEFRCGRTFLSV | 0.196 ± 0.42 |
| IGIDLVRSGSVIFPSPTWKV | 4.411 ± 0.037 |
| IGINLCCGDYFIHVLSASCS | 5.2 ± 0.058 |
| IGKRASSPYYRPSIVVYSWD | -0.302 ± 0.32 |
| IGLNTYTMF | 0.282 ± 0.49 |
| IGQRLCYCVCWRSSCGVVWQ | 1.46 ± 0.36 |
| IHLIREVAQRFTSCA | 0.7 ± 0.28 |
| IHPRSFRNVCLSSHSEMGG | -0.813 ± 0.76 |
| IIALLYIKMTSTLVTVRKSL | 0.297 ± 0.5 |
| IIFVVVASQKVHWFVRVDGD | -0.658 ± 1 |
| IIGINVWM | 5.443 ± 0.05 |
| IIHAFHMSGPLLRAQVS | -0.308 ± 0.38 |
| IIMPF | -0.682 ± 0.64 |
| IIRRF | 0.28 ± 0.33 |
| IISGAFRCARNGY | 1.62 ± 0.3 |
| IITLSYGGCSVGPCGQ | 7.371 ± 0.057 |
| IIVSDSPTLQRS | 0.163 ± 0.63 |
| IKHKLWRAYYCSESTLSVLS | -1.03 ± 0.28 |
| IKILLCRSGARIGVSCDMSC | 0.706 ± 0.74 |
| IKKGRWAYGPSLVCKNAMRE | 0.799 ± 0.74 |
